Experimental data as given in PMC5620043, “A general mechanism of ribosome dimerization revealed by single-particle cryo-electron microscopy” (Nature Communications, 2017).

Molecular target: the molecule itself
Test: SEC-MALS; SEC-MALLS, Superdex 200 10/300, 100 mM Tris-HCl, 150 mM NaCl, pH 8.0; protein concentrated to about 4 mg/ml; three batches, two with 10% glycerol

B1: HPF^long from L. lactis with N-terminal Strep-tag (natural protein, UniProt A2RIX0 1-185, looked up)
chain: MIKFNIRGENVEVTDAIRAYVEDKIGKLDKYFNDGHEVTAYVNLKVYTEKRAKVEVTLPAKNVTLRAEDTSQDMYSSIDFVEEKLERQIRKYKTRMNRKPRNAVPTGQVFGDEFAPLDTTDEVAEDHVDIVRTKHVALKPMDAEEAVLQMDMLGHDFYVFTDADSNGTHVVYRRTDGRYGLIETE
notes: HPF^long of Lactococcus lactis, 185 residues, calculated monomer mass 21.3 kDa; also called purified HPF^long; source: overexpressed in L. lactis NZ9000, purified on a Strep-tactin Sepharose column
- stoichiometry N: 2
